Patent US20230192865A1
Each block holds one binder with its values, some of them ahead of it.

Assays:
[1] = target: T1, Galectin-10 protein with His tag (expressed and purified with pk277) (Homo sapiens (Human)) (UniProt Q05315); assay: ELISA, His-tagged Galectin-10 coated at 2500 ng/mL, 254# diluted 1:200, anti-GST mouse antibody and HRP goat anti-mouse, repeat 3
T1 sequence: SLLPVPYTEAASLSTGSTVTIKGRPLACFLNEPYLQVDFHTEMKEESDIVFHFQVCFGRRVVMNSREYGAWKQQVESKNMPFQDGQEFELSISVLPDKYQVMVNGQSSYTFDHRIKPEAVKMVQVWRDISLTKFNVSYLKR

[2] = target: T1, Galectin-10 protein with His tag (expressed and purified with pk277) (Homo sapiens (Human)); assay: ELISA, His-tagged Galectin-10 coated at 125 ng/mL, 254# diluted 1:200, anti-GST mouse antibody and HRP goat anti-mouse, repeat 2
[3] = target: T1, Galectin-10 protein with His tag (expressed and purified with pk277) (Homo sapiens (Human)); assay: ELISA, His-tagged Galectin-10 coated at 500 ng/mL, 254# diluted 1:200, anti-GST mouse antibody and HRP goat anti-mouse, repeat 1
[4] = target: T1, Galectin-10 protein with His tag (expressed and purified with pk277) (Homo sapiens (Human)); assay: ELISA on coated His-tagged Galectin-10, anti-GST detection
[5] = target: T1, Galectin-10 protein with His tag (expressed and purified with pk277) (Homo sapiens (Human)); assay: ELISA, His-tagged Galectin-10 coated at 2500 ng/mL, 254# diluted 1:200, anti-GST mouse antibody and HRP goat anti-mouse, repeat 1
[6] = target: T1, Galectin-10 protein with His tag (expressed and purified with pk277) (Homo sapiens (Human)); assay: ELISA, His-tagged Galectin-10 coated at 500 ng/mL, 254# diluted 1:200, anti-GST mouse antibody and HRP goat anti-mouse, repeat 2
[7] = target: T1, Galectin-10 protein with His tag (expressed and purified with pk277) (Homo sapiens (Human)); assay: ELISA, His-tagged Galectin-10 coated at 125 ng/mL, 254# diluted 1:200, anti-GST mouse antibody and HRP goat anti-mouse, average
[8] = target: T1, Galectin-10 protein with His tag (expressed and purified with pk277) (Homo sapiens (Human)); assay: ELISA, His-tagged Galectin-10 coated at 2500 ng/mL, 254# diluted 1:200, anti-GST mouse antibody and HRP goat anti-mouse, repeat 2
[9] = target: T1, Galectin-10 protein with His tag (expressed and purified with pk277) (Homo sapiens (Human)); assay: ELISA, His-tagged Galectin-10 coated at 2500 ng/mL, 254# diluted 1:200, anti-GST mouse antibody and HRP goat anti-mouse, average
[10] = target: T1, Galectin-10 protein with His tag (expressed and purified with pk277) (Homo sapiens (Human)); assay: ELISA, His-tagged Galectin-10 coated at 500 ng/mL, 254# diluted 1:200, anti-GST mouse antibody and HRP goat anti-mouse, repeat 3
[11] = target: T1, Galectin-10 protein with His tag (expressed and purified with pk277) (Homo sapiens (Human)); assay: ELISA, His-tagged Galectin-10 coated at 125 ng/mL, 254# diluted 1:200, anti-GST mouse antibody and HRP goat anti-mouse, repeat 3
[12] = target: T1, Galectin-10 protein with His tag (expressed and purified with pk277) (Homo sapiens (Human)); assay: ELISA, His-tagged Galectin-10 coated at 500 ng/mL, 254# diluted 1:200, anti-GST mouse antibody and HRP goat anti-mouse, average
[13] = target: T1, Galectin-10 protein with His tag (expressed and purified with pk277) (Homo sapiens (Human)); assay: ELISA, His-tagged Galectin-10 coated at 125 ng/mL, 254# diluted 1:200, anti-GST mouse antibody and HRP goat anti-mouse, repeat 1
[14] = target: T1, Galectin-10 protein with His tag (expressed and purified with pk277) (Homo sapiens (Human)); assay: ELISA, His-tagged Galectin-10 coated at 500 ng/mL, 225# diluted 1:200, anti-GST mouse antibody and HRP goat anti-mouse, average
[15] = target: T1, Galectin-10 protein with His tag (expressed and purified with pk277) (Homo sapiens (Human)); assay: ELISA, His-tagged Galectin-10 coated at 500 ng/mL, 225# diluted 1:200, anti-GST mouse antibody and HRP goat anti-mouse, repeat 2
[16] = target: T1, Galectin-10 protein with His tag (expressed and purified with pk277) (Homo sapiens (Human)); assay: ELISA, His-tagged Galectin-10 coated at 125 ng/mL, 225# diluted 1:200, anti-GST mouse antibody and HRP goat anti-mouse, average
[17] = target: T1, Galectin-10 protein with His tag (expressed and purified with pk277) (Homo sapiens (Human)); assay: ELISA, His-tagged Galectin-10 coated at 500 ng/mL, 225# diluted 1:200, anti-GST mouse antibody and HRP goat anti-mouse, repeat 3
[18] = target: T1, Galectin-10 protein with His tag (expressed and purified with pk277) (Homo sapiens (Human)); assay: ELISA, His-tagged Galectin-10 coated at 500 ng/mL, 225# diluted 1:200, anti-GST mouse antibody and HRP goat anti-mouse, repeat 1
[19] = target: T1, Galectin-10 protein with His tag (expressed and purified with pk277) (Homo sapiens (Human)); assay: ELISA, His-tagged Galectin-10 coated at 2500 ng/mL, 225# diluted 1:200, anti-GST mouse antibody and HRP goat anti-mouse, average
[20] = target: T1, Galectin-10 protein with His tag (expressed and purified with pk277) (Homo sapiens (Human)); assay: ELISA, His-tagged Galectin-10 coated at 2500 ng/mL, 225# diluted 1:200, anti-GST mouse antibody and HRP goat anti-mouse, repeat 2
[21] = target: T1, Galectin-10 protein with His tag (expressed and purified with pk277) (Homo sapiens (Human)); assay: ELISA, His-tagged Galectin-10 coated at 2500 ng/mL, 225# diluted 1:200, anti-GST mouse antibody and HRP goat anti-mouse, repeat 1
[22] = target: T1, Galectin-10 protein with His tag (expressed and purified with pk277) (Homo sapiens (Human)); assay: ELISA, His-tagged Galectin-10 coated at 125 ng/mL, 225# diluted 1:200, anti-GST mouse antibody and HRP goat anti-mouse, repeat 2
[23] = target: T1, Galectin-10 protein with His tag (expressed and purified with pk277) (Homo sapiens (Human)); assay: ELISA, His-tagged Galectin-10 coated at 2500 ng/mL, 225# diluted 1:200, anti-GST mouse antibody and HRP goat anti-mouse, repeat 3
[24] = target: T1, Galectin-10 protein with His tag (expressed and purified with pk277) (Homo sapiens (Human)); assay: ELISA, His-tagged Galectin-10 coated at 125 ng/mL, 225# diluted 1:200, anti-GST mouse antibody and HRP goat anti-mouse, repeat 3
[25] = target: T1, Galectin-10 protein with His tag (expressed and purified with pk277) (Homo sapiens (Human)); assay: ELISA, His-tagged Galectin-10 coated at 125 ng/mL, 225# diluted 1:200, anti-GST mouse antibody and HRP goat anti-mouse, repeat 1

OD at 450 nm [1]: 1.34 OD450
OD at 450 nm [2]: 0.353 OD450
OD at 450 nm [3]: 0.615 OD450
minimum test concentration [4]: 125 ng/mL
OD at 450 nm [5]: 1.32 OD450
OD at 450 nm [6]: 0.551 OD450
OD at 450 nm [7]: 0.373 OD450
OD at 450 nm [8]: 1.2 OD450
OD at 450 nm [9]: 1.28 OD450
OD at 450 nm [10]: 0.577 OD450
OD at 450 nm [11]: 0.37 OD450
OD at 450 nm [12]: 0.581 OD450
OD at 450 nm [13]: 0.397 OD450
B1: 254# nano antibody (SEQ ID NO: 3) (VHH, not shown: a dimerising Fc or GST; small tags and cut ends)
VHH: EVQLQASGGGFVQPGGSLRLSCAASGFTFSSFAMGWFRQAPGKEREFVSAISSGGGNTYYADSVKGRFTISRDNSKNTVYLQMNSLRAEDTATYYCVTPGGRLWYYRYDYRCQGTQVTVSS

OD at 450 nm [14]: 0.265 OD450
OD at 450 nm [15]: 0.26 OD450
minimum test concentration [4]: 125 ng/mL
OD at 450 nm [16]: 0.16 OD450
OD at 450 nm [17]: 0.279 OD450
OD at 450 nm [18]: 0.257 OD450
OD at 450 nm [19]: 0.707 OD450
OD at 450 nm [20]: 0.7 OD450
OD at 450 nm [21]: 0.74 OD450
OD at 450 nm [22]: 0.153 OD450
OD at 450 nm [23]: 0.681 OD450
OD at 450 nm [24]: 0.173 OD450
OD at 450 nm [25]: 0.155 OD450
B2: 225# nano antibody (SEQ ID NO: 4) (VHH, not shown: a dimerising Fc or GST; small tags and cut ends)
VHH: EVQLQASGGGFVQPGGSLRLSCAASGFTFSSYAMGWFRQAPGKERELVSAISSGGGNTYYADSVKGRFTISRDNSKNTVYLQMNSLRAEDTATYYCVTPGGRLWYYRYDYRCQGTQVTVSS
